In the domain aggregation screens of Martell et al. (2025):

Test: soluble fraction after stress (log2 fold change); higher = more stays soluble; pooled small domains, quantitative proteomics
Conditions: stress: pH 4
In short: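 Custom libraries of small protein domains were pooled and exposed to pH 4. High-throughput quantitative proteomics then measured the log2 fold change in the amount of each domain still soluble, with higher values meaning more stayed soluble. This soluble-fraction fold change stands for aggregation propensity.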

## HMIYKLTLLRDLPEAKAGFDFYLRGGLASHDGEEWFSWVTREPIYARLYWLYVEKREEWVLVEETDI
  soluble fraction (log2): -2.47

## HMSGHEVMVQRITAIIAELYQYGFVSRKKMMDEFNISERTLYRDLNRLGDRIVPDGDGIYRLAPAYA
  soluble fraction (log2): -0.954

## HMTRILTEDDIVNFLIRQPDTAYIIAKSFNENERKVKELLDLLIKKNKVREEIVNGVVSYAVN
  soluble fraction (log2): -0.208

## HMTKYVEGQKYVFEFRDGTITIGTYLRTGEGNIYIKDLSGEDIYIPKIMIAQIHLATDDNVKGDEFWF
  soluble fraction (log2): -1.17

## HMDGQPLSERQQEILRWVAEGLSNREIGERLNITPNTVRDHLSEVMRRLEVSNRTSAVSTAFHLGLLP
  soluble fraction (log2): -0.178

## HMSSDLESVIGTHSQEANFALRSWGWIQPDETWKNLRPDQVSQILERANEFMAKAIESFANAQSE
  soluble fraction (log2): -0.984

## HMHEGNWTLPNPMPIGTTLTLPEHSRLYISNLAGQRVFETSATSVEIPLLPKGTYLLRLETMNGHTTRKIL
  soluble fraction (log2): 0.00873

## HMRWAAIMGREVAAHSTPESLVEGKLHIRTDTTAWATQLRLMSADIVRRLNEVLGEGTVLEVDVRG
  soluble fraction (log2): -1.12

## HMARNHYETLGVGRTATGDEIRKAYRSEAQKHHPDRGGDAERMQSLNEARDTLLDDQARAAYDQELDL
  soluble fraction (log2): -0.0435

## HMQPTVEGLMKALETMTFNERTALALHYGLTGRQPMTFMAIGRYLGISDGRAEALVNSAIRKLR
  soluble fraction (log2): 0.0497

## HMIFTPNGDRVNDVFEIEMGVKLEFQIIILNQQNQTVFKSADPDFKWDGTMLNGEPAPSGTYLYYFSAKD
  soluble fraction (log2): 0.22

## HMTPQVTVPDVTGQSFASAKQVLESLGLTVKQQGSTGENDKVIGQNPTSGNADKGATITLTTQDS
  soluble fraction (log2): -0.154

## HMKYYIYQGLGDSGELTKIAEVTDVKTYTATGLEANTKYRFAVSAYNGLRESSKSNIITVTT
  soluble fraction (log2): -0.325

## HMIKIEDILNVESVELSDSEYKKFLNGILINVKNLENGWAKVYSGNEFKGFGIVDKNLLKRKIVID
  soluble fraction (log2): -0.407

## HMTWDSFIGYTVTDVQKGYLGEITDVDETTINVLLRVDHKGEELLIPAVEELITEADHEARSLTVSLPEGL
  soluble fraction (log2): -2.11

## HMNIYFNIEDAVANAVVENGKMSAAIYEKNVDTGEVAKLAEVSMPVMGGNINITKTLLTKALISQLP
  soluble fraction (log2): -0.713

## HMSKKMTNEEILNFLKKVLIKHGKISGFIIDEDDNGPSSSVVASRFGGLLNAYKLINYTPER
  soluble fraction (log2): ≥ 0.43

## HMAEVPSLIGKSLDAAKQAIIDAGFKVGSVSYDNSDSYGKGQVMWQQYEPSTKVKKGSSISIKVSKGS
  soluble fraction (log2): -0.121

## HMTGIRVYPNPTSSELRFSVATDAALYDATGARLRVVRGSDMMDIRDLASGTYYVRFADGSTQSVVVT
  soluble fraction (log2): -0.0136

## HMDEYFNPETVVHYLRELFDTYRENGGNPFEWFHSTFESVNLNPQNYRKDLITTIEKALIEWIEIFEKQ
  soluble fraction (log2): -0.553

## HMVDFHAAYSILRIAPGASWQEIQAAYEKLNDAWREDRYPQVPFWNEKAAFKRREVEQAYEKLRKFHALRH
  soluble fraction (log2): 0.0778

## HMAQVRSTVERRENGTYTVELNLNDDVDNVMRLQLMVATKEMAEDLAQRFQKNPEQVYSQLVTALYG
  soluble fraction (log2): -0.719

## HMGFYDLFINLADKVGSLADVTQILAEARINLVNVHILEIREEIDGIAQLTFSSEKDRQKALELLKTKYK
  soluble fraction (log2): -1.52

## HMSMFTPAQVAQTLTVPPSTLRRWAKRFAPFLSPQSGKKRTYTVADLDTFQRIKELSAQGYTFAQIDQAL
  soluble fraction (log2): -0.101

## HMKLINEDLNNEIVFEENKVNLLVIENKKKFVQFIQEIIKQINGDEGKFSLFDINTELKIHDKIDII
  soluble fraction (log2): -0.0802

## HMIITTPYKVTASAINIRSGRGTSYSIIGTVSKGQTVDVYNNSLSKGWVKVKFSGSVGYAYAKYLEK
  soluble fraction (log2): -0.116

## HMDAQLRVPDLTPYNYSELKENTSLYEGFTIEVVEERSTGDYAAGTVLDQDPKADTLIQDGDSTVIKLVIA
  soluble fraction (log2): -0.115

## HMIINKFERRKEIQIQFNNQERIKFKDFFLNLSKENIIVSFLILLELVRESLIDFSGTNENDIEFFIK
  soluble fraction (log2): -0.834

## HMSQRITYTEFVQMVKDDKVEKVEVGANQYNITPKSDDKTLVKMTYYTGFIKDENLLDLLNKHKVEIDGYI
  soluble fraction (log2): 0.169

## HMDPERVVGQTGIVHLRIPARQHNTGKVMIEVQGSLREFDAVSEAEEIPTGTPILIVGRTEEGVFIAQPF
  soluble fraction (log2): -0.823
